Reference: US20220168400A1, “USE OF A MANGANESE SUPEROXIDE DISMUTASE WITH HIGH STABILITY IN THE PREVENTION OR TREATMENT OF CEREBRAL STROKE” (CARRY HEALTH BIOPHARMACEUTICALS (HANGZHOU) CO., LTD., priority 2019, published 2022)
“And” between values parts separate entries of the source, which are not always exact repeats. Equal entries are not always repeated.

What was measured:
[1] = test system: cerebral hemorrhage model in wild-type AB strain zebrafish; assay: Blood flow volume in simvastatin-induced cerebral hemorrhage model in zebrafish; type: in vivo; details: for Blood flow volume (mean ± SE): n = 10, model control 0.13, normal control 0.30 nL/s
Description: 3 dpf wild-type AB strain zebrafish was administered with an aqueous simvastatin solution (0.5 μM) for 18 hours to establish a cerebral hemorrhage model in zebrafish. 180 wild-type AB strain zebrafishes at 3 days post fertilization (3 dpf) were randomly selected and put in a six-well plate, 30 per well (experiment group). Aqueous MS-SOD solutions with concentrations of 222, 667 and 2000 μg/mL were administrated respectively, the concentration of positive control drug icariin was 30 μM, and the normal control group (the zebrafishes were treated with water for fish) and the model control group were set at the same time. The volume of each well was 3 mL. After treatment of zebrafishes with samples for 4 hours, except for the normal control group, the other experiment groups were treated with simvastatin for 18 hours to establish the cerebral hemorrhage model. After the treatment, 10 zebrafishes from each group were randomly selected and placed in a heart rate and blood flow analysis system to record blood flow video of zebrafish, and analyze the blood flow volume (O) of zebrafish. The statistical significance of the blood flow volume was used to evaluate the improvement effect of MS-SOD on blood flow volume of cerebral hemorrhage. The formula of the improvement effect of MS-SOD on blood flow volume of cerebral hemorrhage was as follows: [formula] Statistical analysis was performed using variance analysis and Dunnett's T-test, and p<0.05 indicated a significant difference. 4.

[2] = Specific activity of MS-SOD; type: biochemical; details: MS-SOD used in the zebrafish experiments
[3] = test system: cerebral hemorrhage model in wild-type AB strain zebrafish; assay: Simvastatin-induced cerebral hemorrhage model in zebrafish (incidence); type: in vivo; details: for Number of zebrafish with cerebral hemorrhage / Incidence of cerebral hemorrhage: n = 30; for Incidence of cerebral hemorrhage: model control 83%
Description: 1 dpf wild-type AB strain zebrafish was administered with an aqueous simvastatin solution (0.5 μM) for 18 hours to establish a cerebral hemorrhage model in zebrafish. 180 wild-type AB strain zebrafishes at 1 day post fertilization (1 dpf) were randomly selected and put in a six-well plate, 30 per well (experiment group). Simvastatin was used to induce a cerebral hemorrhage model in zebrafish. Aqueous MS-SOD solutions with concentrations of 222, 667 and 2000 μg/mL were administrated respectively, the concentration of positive control drug icariin was 30 μM, and the normal control group and the model control group were set at the same time. The volume of each well was 3 mL. After 18 hours of co-treatment with MS-SOD and simvastatin, 30 zebrafishes from each group were selected and observed under a microscope, photos were taken and saved. The number of zebrafish with cerebral hemorrhage was counted, and the incidence of cerebral hemorrhage in zebrafish of each experiment group was calculated.

[4] = test system: cerebral ischemia model in Albino strain zebrafish; assay: Ponatinib-induced cerebral ischemia model in zebrafish; type: in vivo; details: for Number of zebrafish with cerebral ischemia / Incidence of cerebral ischemia: n = 20; for Incidence of cerebral ischemia: model control 100%
Description: Melanin allele mutated Albino strain zebrafish at 2 days post fertilization (2 dpf) was administered with an aqueous ponatinib solution (1 μg/mL) for 18 hours to establish a cerebral ischemia model in zebrafish. 180 melanin allele mutated Albino strain zebrafishes at 2 days post fertilization (2 dpf) were randomly selected. 30 zebrafishes were treated in each well (experiment group), and aqueous MS-SOD solutions with concentrations of 222, 667 and 2000 μg/mL were administrated respectively, the concentration of positive control drug aspirin was 50 μg/m L, and the normal control group and the model control group were set at the same time. The volume of each well was 3 mL. After MS-SOD treatment for a period of time, except for the normal control group, all the other experiment groups were simultaneously administrated with aqueous ponatinib solution to induce the cerebral ischemia model in zebrafish. After 18 hours of co-treatment with MS-SOD and ponatinib, 20 fish were randomly selected from each well and stained with o-Dianisidine. After staining, photos were taken and data were collected to count the number of zebrafish with cerebral ischemia and calculate the incidence of cerebral ischemia in zebrafish of each experiment group.

[5] = test system: middle cerebral artery occlusion (MCAO) model in C57BL/6J mice; assay: Modified neurological severity score in MCAO model; type: in vivo; details: vs model group
Description: (3) MS-SOD1 group (10 mice): mice aged 4 weeks were fed with drinking water supplemented with MS-SOD for 4 weeks (3 U/day/g body weight), and then subjected to establish middle cerebral artery occlusion model;
(4) MS-SOD2 group (10 mice): after establishing middle cerebral artery occlusion model, the mice were intragastrically administered with MS-SOD 600 U once when they waked up from the anesthesia. […]
The procedure was performed on each group of mice. […] The mice in groups 2-4 were scored by double blind method.
Finally, the differences of different intervention conditions and MCAO model establishment on the degree of cerebral injury and neurological severity in mice were analyzed. All data were expressed as mean ±standard deviation. […]

B1: MS-SOD: manganese superoxide dismutase with high stability, gene from Thermus thermophilus HB27 expressed in E. coli; amino acid sequence SEQ ID NO: 4 (protein)
chain: MPYPFKLPDLGYPYEALEPHIDAKTMEIHHQKHHGAYVTNLNAALEKYPYLHGVEVEVLLRHLAALPQDIQTAVRNNGGGHLNHSLFWRLLTPGGAKEPVGELKKAIDEQFGGFQALKEKLTQAAMGRFGSGWAWLVKDPFGKLHVLSTPNQDNPVMEGFTPIVGIDVWEHAYYLKYQNRRADYLQAIWNVLNWDVAEEFFKKA
modifications: Amino acid sequence for MS-SOD
Blood flow volume improvement effect ([1]; MS-SOD 222 μg/mL): 59% | Blood flow volume (mean ± SE) ([1]; MS-SOD 222 μg/mL): 0.23 nL/s and 0.23 ± 0.014 nL/s | Blood flow volume improvement effect ([1]; MS-SOD 667 μg/mL): 71% | Blood flow volume (mean ± SE) ([1]; MS-SOD 667 μg/mL): 0.25 nL/s and 0.25 ± 0.024 nL/s | Blood flow volume improvement effect ([1]; MS-SOD 2000 μg/mL): 71% | Blood flow volume (mean ± SE) ([1]; MS-SOD 2000 μg/mL): 0.25 nL/s and 0.25 ± 0.019 nL/s | specific activity [2]: 5 U/μg | Improvement effect on cerebral hemorrhage ([3]; MS-SOD 222 μg/mL): 28% | Number of zebrafish with cerebral hemorrhage ([3]; MS-SOD 222 μg/mL): 18 | Incidence of cerebral hemorrhage ([3]; MS-SOD 222 μg/mL): 60% | Improvement effect on cerebral hemorrhage ([3]; MS-SOD 667 μg/mL): 20% | Number of zebrafish with cerebral hemorrhage ([3]; MS-SOD 667 μg/mL): 20 | Incidence of cerebral hemorrhage ([3]; MS-SOD 667 μg/mL): 67% | Improvement effect on cerebral hemorrhage ([3]; MS-SOD 2000 μg/mL): 32% | Number of zebrafish with cerebral hemorrhage ([3]; MS-SOD 2000 μg/mL): 17 | Incidence of cerebral hemorrhage ([3]; MS-SOD 2000 μg/mL): 57% | Improvement effect on cerebral ischemia ([4]; MS-SOD 222 μg/mL): 60% | Number of zebrafish with cerebral ischemia ([4]; MS-SOD 222 μg/mL): 8 | Incidence of cerebral ischemia ([4]; MS-SOD 222 μg/mL): 40% | Improvement effect on cerebral ischemia ([4]; MS-SOD 667 μg/mL): 65% | Number of zebrafish with cerebral ischemia ([4]; MS-SOD 667 μg/mL): 7 | Incidence of cerebral ischemia ([4]; MS-SOD 667 μg/mL): 35% | Improvement effect on cerebral ischemia ([4]; MS-SOD 2000 μg/mL): 55% | Number of zebrafish with cerebral ischemia ([4]; MS-SOD 2000 μg/mL): 9 | Incidence of cerebral ischemia ([4]; MS-SOD 2000 μg/mL): 45% | neurological severity score ([5]; MS-SOD1 group: 3 U/day/g body weight for 4 weeks before MCAO, P=0.281): not significantly improved | neurological severity score (mNSS) ([5]; MS-SOD2 group: 600 U intragastrically once after MCAO, P=0.05): significantly reduced
